Test results reported in PMC2217137.

Target: rabbit skeletal muscle Ca2+ release channel (ryanodine receptor), purified 30 S complex (rabbit) (UniProt P11716)
Experiment: single-channel recording in planar lipid bilayers

Row | Substance | Kd [µM] | time constant of dwell times in the burst (toxin-free) state at 100 nM IpTxa [ms] | time constant of dwell times in the subconductance (toxin-bound) state [ms] | K m (of P substate against [IpTxa]) [nM]
1 | imperatoxin activator (IpTxa), native, purified from Pandinus imperator venom (from UniProt P59868 1-33) (peptide) | 0.0182 | 965 | 3380 | –
2 | imperatoxin activator (IpTxa), synthetic (from UniProt P59868 1-33) (peptide) | – | – | – | 2
